Molecular target: the molecule itself
Assay: dynamic light scattering; 20 µl of freshly purified protein (8 mg/ml) at 20 °C, DynaPro NanoStar; self-association (oligomeric state)

B1: Tde1415 (Tde-PntC; two-domain protein with an N-terminal PntC and a C-terminal AEPT domain) from Treponema denticola (enzyme, Treponema denticola ATCC 35405)
chain: MIKQAVILAGGLGSRLKDKTKTMPKGFLEIGGTAIVEQSVQKLLAHGIEKIVIGTGHCNEYYDNLAKKYPAIITVKNENYANTGSMGTLEVCASFVNESFLLLESDLIYDSAGLFSLINDERKNLILASGATKSGDEVYLEADEKNCLTGLSKNRDALKNIFGELVGITKLTKSTLDKMCAYAKIHHSDLPKMEYEHALLEAAKTIPVAIKRIEYFVWREIDNEDHLEMAVKNIYPHIVENEKLRAVRREVLLNPGPATTTDSVKYAQVSADICPREKAFGDLMQWLCDELKLFALASETNPDEYETVMFGCSGTGADEVMVSSCVPDTGRLLVIDNGSYGARMAKIADIYKIPMDIFKSSTYEPLDLQKLEAEFATKKYTHLACVYHETTTGLLNPLHIICPMAKKYGMVTIVDAVSAYCGMPMDLKSLGIDFMASTSNKNIQGMAGVGFVICNKAELEKTKDYPMRNYYLNLYDQYAYFAKTHQTRFTPPVQTMYALRQAVLETKQETVQKRYERYTACWNILVAAIKKLGLKMLVKEEHQSHFITAILEPETPKYSFEALHDFAAEHSFTIYPGKLGNIDTFRIANIGDIQPEEMRRFTVKLKEYMNGIGVGV
notes: Tde1415 (Tde-PntC) from T. denticola ATCC 35405, NCBI NP_992021; N-terminal PntC cytidylyltransferase domain joined to a C-terminal AEP transaminase (AEPT) domain; predicted monomeric molecular weight ~70 kDa; gene subcloned without its stop codon as NdeI/NotI fragment into pET21b (pGH3000); Dimer by DLS; source: E. coli BL21(DE3), purified (Ni-NTA, HiTrap Q FF anion exchange)
stoichiometry N: 2
